From PMC12720779

Assays:
T2Q A34F variant of GB1 [1] = experiment: NMR titration; 19F NMR of 3-fluorotyrosine-labelled A34F, serial dilution 500 to 15.6 uM; dimer to monomers; 20 mM phosphate pH 7.0, 10% D2O, 298 K; with 100 g/L heparin (15 kDa) as crowder
T2Q A34F variant of GB1 [2] = experiment: NMR titration; 19F NMR of 3-fluorotyrosine-labelled A34F, serial dilution 500 to 15.6 uM; dimer to monomers; 20 mM phosphate pH 7.0, 10% D2O, 298 K; with hyaluronic acid (50 kDa) as crowder
T2Q A34F variant of GB1 [3] = experiment: NMR titration; 19F NMR of 3-fluorotyrosine-labelled A34F, serial dilution 500 to 15.6 uM, Y33 monomer and dimer peak integrals; dimer to monomers; 20 mM phosphate pH 7.0, 10% D2O, 298 K; buffer alone
T2Q A34F variant of GB1 [4] = experiment: NMR titration; 19F NMR of 3-fluorotyrosine-labelled A34F, serial dilution 500 to 15.6 uM; dimer to monomers; 20 mM phosphate pH 7.0, 10% D2O, 298 K; with 100 g/L mucin (porcine stomach) as crowder
T2Q A34F variant of GB1 [5] = experiment: NMR titration; 19F NMR of 3-fluorotyrosine-labelled A34F, serial dilution 500 to 15.6 uM; dimer to monomers; 20 mM phosphate pH 7.0, 10% D2O, 298 K; with ficoll (70 kDa) as crowder

Kd (T2Q A34F variant of GB1 [1]): 12 µM | Kd (T2Q A34F variant of GB1 [2]): 8 µM | Kd (T2Q A34F variant of GB1 [3]): 57 µM | stoichiometry N (T2Q A34F variant of GB1 [3]): 2 | Kd (T2Q A34F variant of GB1 [4]): 26 µM | Kd (T2Q A34F variant of GB1 [5]): 42 µM
Substance: T2Q A34F variant of GB1 (domain or fragment)
